Test results from US20140314790.

Target: T1, N3-2A, Modulator of β-cleavage of APP (MoBA)
T1 chain: DAVYYCGLKY

B1: purified β-secretase (protein)
chain: ETDEEPEEPGRRGSFVEMVDNLRGKSGQGYYVEMTVGSPPQTLNILVDTGSSNFAVGAAPHPFLHRYYQRQLSSTYRDLRKGVYVPYTQGKWEGELGTDLVSIPHGPNVTVRANIAAITESDKFFINGSNWEGILGLAYAEIARPDDSLEPFFDSLVKQTHVPNLFSLQLCGAGFPLNQSEVLASVGGSMIIGGIDHSLYTGSLWYTPIRREWYYEVIIVRVEINGQDLKMDCKEYNYDKSIVDSGTTNLRLPKKVFEAAVKSIKAASSTEKFPDGFWLGEQLVCWQAGTTPWNIFPVISLYLMGEVTNQSFRITILPQQYLRPVEDVATSQDDCYKFAISQSSTGTVMGAVIMEGFYVVFDRARKRIGFAVSACHVHDEFRTAAVEGPFVTLDMEDCGYNIPQTDESTLMT
activity of purified β-secretase on a fluorescent substrate (FRET assay): N3-2A did not inhibit the activity of purified β-secretase
